Assay results as given in article PMC9242856, “Structural basis of sodium-dependent bile salt uptake into the liver” (Nature, 2022).

B1: Nanobody 91 (VHH)
VHH: QVQLVESGGGLVEAGGSLRLSCAASTNLRSYAMAWFRQAPGKEREFVSFINWNYGNTRYADSVKGRFTISRDNAKITVYLQMNSLKPEDTAVYYCAAATIGRLAGIDSTTLYDYWGQGTQVTVSS
B2: Nanobody 87 (VHH)
VHH: QVQLVESGGGLVQAGGSLRLSCAVSGRTTANYNMGWFRQAPGKEREFVAGIKWSSGSTYVADSAKGRFTISRDNAKNSVYLQMDSLKPEDTALYYCAANYYGVSWFLISPSSYDYWGQGTQVTVSS
notes: llama (Lama glama) nanobody raised against NTCPCO; the nanobody chain of PDB 7PQG; Tags are those of the phage display vector pMESy4 as told for the library; also called Nb87; source: E. coli periplasm, purified (Ni-NTA, SEC)

How the values were obtained:
[1] = target: NTCPEM expressed on HEK 293F cells (human) (UniProt Q14973)
[2] = target: T1, wild-type human Na+-taurocholate co-transporting polypeptide (NTCP) expressed on HEK 293F cells (human, UniProt Q14973); assay: fluorescent ligand labelling of cells (plate reader); HEK 293F cells expressing NTCP constructs in PBS; labelled with 10 nM (wild-type NTCP) or 50 nM (NTCPEM) purified myr-preS1_48-GFP for 30 min; where tested, pre-incubation with 10 uM nanobody for 1.5 h; GFP fluorescence, excitation 470 nm, emission 508 nm; settings: one partner purified
T1 construct: Na+-taurocholate co-transporting polypeptide (NTCP, SLC10A1), human, wild type; also called wild-type NTCP; SLC10A1; source: HEK 293F, transient transfection, on cells
T1 sequence (Q14973 whole entry): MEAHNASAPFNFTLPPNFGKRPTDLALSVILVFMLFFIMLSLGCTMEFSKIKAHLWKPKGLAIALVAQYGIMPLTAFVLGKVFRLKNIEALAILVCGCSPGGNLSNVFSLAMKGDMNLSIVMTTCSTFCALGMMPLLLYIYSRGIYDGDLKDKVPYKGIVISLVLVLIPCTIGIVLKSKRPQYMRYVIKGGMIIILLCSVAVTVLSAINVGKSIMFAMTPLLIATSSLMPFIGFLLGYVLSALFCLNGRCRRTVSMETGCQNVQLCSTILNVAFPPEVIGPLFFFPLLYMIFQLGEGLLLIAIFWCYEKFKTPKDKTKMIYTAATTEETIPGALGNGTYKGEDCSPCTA

Chain of NTCPEM expressed on HEK 293F cells (human) (Q14973 other isoform, or with tags, fused parts or gaps, change not shown): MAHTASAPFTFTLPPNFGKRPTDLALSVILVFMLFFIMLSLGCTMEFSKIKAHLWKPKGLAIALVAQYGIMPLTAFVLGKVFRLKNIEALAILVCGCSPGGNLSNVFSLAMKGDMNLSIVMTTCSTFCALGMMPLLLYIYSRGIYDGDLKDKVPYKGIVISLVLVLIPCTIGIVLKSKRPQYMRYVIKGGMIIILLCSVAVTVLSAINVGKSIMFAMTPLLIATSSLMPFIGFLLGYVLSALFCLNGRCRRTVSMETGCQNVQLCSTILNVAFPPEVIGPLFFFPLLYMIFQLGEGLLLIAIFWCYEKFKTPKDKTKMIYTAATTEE

Binder | IC50 of inhibition of Na+-induced uptake of the fluorescent substrate tauro-nor-THCA-24-DBD by cells expressing NTCPEM [1] | binding result [2]
B1 | 34 nM | 
B2 | 180 nM | binds
